Test results taken from PMC3446985.

Biological target: human GRP78 (human) (UniProt P11021)
Assay: AUC; sedimentation velocity, GRP78 alone at 0.4, 0.6 and 1.2 mg/mL, 28,000 rpm, 20°C, 20 mM sodium phosphate pH 7.0, 100 mM NaCl, 55 mM arginine, c(S) analysis; monomer to dimer

Sequence of human GRP78, P11021 19-654 (natural protein; other documents disagree on this pair) (P11021 19-654): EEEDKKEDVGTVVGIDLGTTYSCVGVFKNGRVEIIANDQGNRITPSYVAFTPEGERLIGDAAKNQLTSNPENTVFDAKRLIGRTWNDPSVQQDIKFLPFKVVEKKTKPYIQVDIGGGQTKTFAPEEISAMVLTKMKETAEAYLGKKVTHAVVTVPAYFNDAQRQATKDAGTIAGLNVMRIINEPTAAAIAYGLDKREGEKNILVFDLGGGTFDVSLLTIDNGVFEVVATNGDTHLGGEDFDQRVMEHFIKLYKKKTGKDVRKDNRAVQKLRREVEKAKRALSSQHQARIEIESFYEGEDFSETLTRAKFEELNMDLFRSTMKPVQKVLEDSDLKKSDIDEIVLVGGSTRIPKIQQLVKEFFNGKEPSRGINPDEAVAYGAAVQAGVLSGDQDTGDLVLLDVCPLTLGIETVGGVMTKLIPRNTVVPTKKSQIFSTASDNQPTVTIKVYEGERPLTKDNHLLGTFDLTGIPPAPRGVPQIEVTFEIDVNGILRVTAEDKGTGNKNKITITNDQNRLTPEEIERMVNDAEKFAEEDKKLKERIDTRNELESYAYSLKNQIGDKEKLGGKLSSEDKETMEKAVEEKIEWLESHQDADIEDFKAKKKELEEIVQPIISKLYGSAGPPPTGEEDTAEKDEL

human GRP78, P11021 19-654 (natural protein; other documents disagree on this pair)
stoichiometry N: 2
